Test results from paper PMC10532153 (2023).
Each block holds one binder with its values, some of them ahead of it.

Columns and labels:
Sos-S1 peptide = molecular target: T1, Sos-S1 peptide (Drosophila melanogaster, UniProt P26675); assay: NMR titration
T1 chain: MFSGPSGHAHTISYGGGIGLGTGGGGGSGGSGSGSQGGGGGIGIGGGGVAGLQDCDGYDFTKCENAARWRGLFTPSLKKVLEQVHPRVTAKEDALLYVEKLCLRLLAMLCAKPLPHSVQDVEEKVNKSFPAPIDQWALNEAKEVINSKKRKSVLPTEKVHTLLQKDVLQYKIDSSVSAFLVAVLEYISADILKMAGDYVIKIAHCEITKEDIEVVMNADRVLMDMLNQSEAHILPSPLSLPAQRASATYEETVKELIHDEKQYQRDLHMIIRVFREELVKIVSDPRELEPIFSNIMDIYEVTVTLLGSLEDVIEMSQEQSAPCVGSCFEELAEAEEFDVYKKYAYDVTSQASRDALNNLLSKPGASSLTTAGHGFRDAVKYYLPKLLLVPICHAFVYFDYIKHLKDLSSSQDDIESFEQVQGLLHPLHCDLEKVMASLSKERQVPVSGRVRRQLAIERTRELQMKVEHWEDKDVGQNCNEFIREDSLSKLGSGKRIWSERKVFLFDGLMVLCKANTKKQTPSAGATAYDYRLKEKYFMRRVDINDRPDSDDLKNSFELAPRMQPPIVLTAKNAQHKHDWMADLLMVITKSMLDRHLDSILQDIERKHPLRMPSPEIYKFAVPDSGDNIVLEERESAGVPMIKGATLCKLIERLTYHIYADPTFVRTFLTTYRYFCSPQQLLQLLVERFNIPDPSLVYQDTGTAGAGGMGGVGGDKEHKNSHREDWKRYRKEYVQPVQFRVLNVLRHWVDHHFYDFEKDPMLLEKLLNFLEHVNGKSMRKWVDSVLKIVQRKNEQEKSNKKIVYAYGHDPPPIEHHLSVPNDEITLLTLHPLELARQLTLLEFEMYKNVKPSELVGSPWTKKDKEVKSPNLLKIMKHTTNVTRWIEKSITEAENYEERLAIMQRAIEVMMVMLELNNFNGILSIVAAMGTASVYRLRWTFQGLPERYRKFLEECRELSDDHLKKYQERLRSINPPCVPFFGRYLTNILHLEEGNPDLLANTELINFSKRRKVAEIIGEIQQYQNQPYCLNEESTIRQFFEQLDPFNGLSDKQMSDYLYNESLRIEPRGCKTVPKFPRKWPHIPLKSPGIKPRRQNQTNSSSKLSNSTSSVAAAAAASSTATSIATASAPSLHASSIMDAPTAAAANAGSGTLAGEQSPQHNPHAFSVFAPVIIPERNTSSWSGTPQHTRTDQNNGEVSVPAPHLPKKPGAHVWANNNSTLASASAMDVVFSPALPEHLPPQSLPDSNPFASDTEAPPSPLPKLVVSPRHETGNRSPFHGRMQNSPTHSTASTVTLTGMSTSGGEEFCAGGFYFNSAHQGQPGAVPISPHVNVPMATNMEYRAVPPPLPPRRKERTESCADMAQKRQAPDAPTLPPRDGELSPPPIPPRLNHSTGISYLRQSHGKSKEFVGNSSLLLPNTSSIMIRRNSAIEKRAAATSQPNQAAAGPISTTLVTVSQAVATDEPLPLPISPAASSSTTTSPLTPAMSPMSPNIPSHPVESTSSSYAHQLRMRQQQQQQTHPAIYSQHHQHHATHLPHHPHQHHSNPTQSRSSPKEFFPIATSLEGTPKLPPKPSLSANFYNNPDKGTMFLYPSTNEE

Sos-S2 peptide = molecular target: T2, Sos-S2 peptide (Drosophila melanogaster, UniProt P26675); assay: NMR titration
T2 chain: T1 chain

Kd (Sos-S1 peptide): ~160 µM
B1: Drk CSH3 (protein)
chain: PEEMLVQALYDFVPQESGELDFRRGDVITVTDRSDENWWNGEIGNRKGIFPATYVTPYHS

Kd (Sos-S2 peptide): ~41 µM | Kd (Sos-S1 peptide): ~13 µM
B2: Drk NSH3 (protein)
chain: MEAIAKHDFSATADDELSFRKTQILKILNMEDDSNWYRAELDGKEGLIPSNYIEMKNH
